B1: Beta-arrestin-2 (Homo sapiens), P32121-4 (parent)
chain: MGEKPGTRVFKKSSPNCKLTVYLGKRDFVDHLDKVDPVDGVVLVDPDYLKDRKVFVTLTCAFRYGREDLDVLGLSFRKDLFIATYQAFPPVPNPPRPPTRLQDRLLRKLGQHAHPFFFTVRMPLPSEGQGAGAGTVSGVGIPQNLPCSVTLQPGPEDTGKACGVDFEIRAFCAKSLEEKSHKRNSVRLVIRKVQFAPEKPGPQPSAETTRHFLMSDRSLHLEASLDKELYYHGEPLNVNVHVTNNSTKTVKKIKVSVRQYADICLFSTAQYKCPVAQLEQDDQVSPSSTFCKVYTITPLLSDNREKRGLALDGKLKHEDTNLASSTIVKEGANKEVLGILVSYRVKVKLVVSRGGDVSVELPFVLMHPKPHDHIPLPRPQSAAPETDVPVDTNLIEFDTNYATDDDIVFEDFARLRLKGMKDDDYDDQLC
B2: Receptor tyrosine-protein kinase erbB-4 (Homo sapiens), Q15303 (parent)
chain: MKPATGLWVWVSLLVAAGTVQPSDSQSVCAGTENKLSSLSDLEQQYRALRKYYENCEVVMGNLEITSIEHNRDLSFLRSVREVTGYVLVALNQFRYLPLENLRIIRGTKLYEDRYALAIFLNYRKDGNFGLQELGLKNLTEILNGGVYVDQNKFLCYADTIHWQDIVRNPWPSNLTLVSTNGSSGCGRCHKSCTGRCWGPTENHCQTLTRTVCAEQCDGRCYGPYVSDCCHRECAGGCSGPKDTDCFACMNFNDSGACVTQCPQTFVYNPTTFQLEHNFNAKYTYGAFCVKKCPHNFVVDSSSCVRACPSSKMEVEENGIKMCKPCTDICPKACDGIGTGSLMSAQTVDSSNIDKFINCTKINGNLIFLVTGIHGDPYNAIEAIDPEKLNVFRTVREITGFLNIQSWPPNMTDFSVFSNLVTIGGRVLYSGLSLLILKQQGITSLQFQSLKEISAGNIYITDNSNLCYYHTINWTTLFSTINQRIVIRDNRKAENCTAEGMVCNHLCSSDGCWGPGPDQCLSCRRFSRGRICIESCNLYDGEFREFENGSICVECDPQCEKMEDGLLTCHGPGPDNCTKCSHFKDGPNCVEKCPDGLQGANSFIFKYADPDRECHPCHPNCTQGCNGPTSHDCIYYPWTGHSTLPQHARTPLIAAGVIGGLFILVIVGLTFAVYVRRKSIKKKRALRRFLETELVEPLTPSGTAPNQAQLRILKETELKRVKVLGSGAFGTVYKGIWVPEGETVKIPVAIKILNETTGPKANVEFMDEALIMASMDHPHLVRLLGVCLSPTIQLVTQLMPHGCLLEYVHEHKDNIGSQLLLNWCVQIAKGMMYLEERRLVHRDLAARNVLVKSPNHVKITDFGLARLLEGDEKEYNADGGKMPIKWMALECIHYRKFTHQSDVWSYGVTIWELMTFGGKPYDGIPTREIPDLLEKGERLPQPPICTIDVYMVMVKCWMIDADSRPKFKELAAEFSRMARDPQRYLVIQGDDRMKLPSPNDSKFFQNLLDEEDLEDMMDAEEYLVPQAFNIPPPIYTSRARIDSNRSEIGHSPPPAYTPMSGNQFVYRDGGFAAEQGVSVPYRAPTSTIPEAPVAQGATAEIFDDSCCNGTLRKPVAPHVQEDSSTQRYSADPTVFAPERSPRGELDEEGYMTPMRDKPKQEYLNPVEENPFVSRRKNGDLQALDNPEYHNASNGPPKAEDEYVNEPLYLNTFANTLGKAEYLKNNILSMPEKAKKAFDNPDYWNHSLPPRSTLQHPDYLQEYSTKYFYKQNGRIRPIVAENPEYLSEFSLKPGTVLPPPPYRHRNTVV
partner: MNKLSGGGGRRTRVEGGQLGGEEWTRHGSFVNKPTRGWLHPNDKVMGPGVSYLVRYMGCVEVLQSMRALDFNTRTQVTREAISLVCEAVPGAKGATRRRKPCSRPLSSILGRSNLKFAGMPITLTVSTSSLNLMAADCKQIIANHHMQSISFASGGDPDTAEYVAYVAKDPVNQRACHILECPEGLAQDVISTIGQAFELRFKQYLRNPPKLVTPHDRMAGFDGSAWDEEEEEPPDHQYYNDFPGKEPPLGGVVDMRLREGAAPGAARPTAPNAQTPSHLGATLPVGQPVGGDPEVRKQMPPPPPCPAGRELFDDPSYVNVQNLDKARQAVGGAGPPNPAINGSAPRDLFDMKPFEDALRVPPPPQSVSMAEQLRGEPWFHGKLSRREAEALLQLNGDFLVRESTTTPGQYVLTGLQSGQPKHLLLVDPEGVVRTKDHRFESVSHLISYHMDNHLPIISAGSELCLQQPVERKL

Variants of: B1
Settings: with adrb2_human ADRB2, P07550

| effect of a mutation on the interaction | Variant |
| --- | --- |
| decreasing interaction strength | MGEKPGTRVFKKSSPNCKLTVYLGKRDFVDHLDKVDPVDGVVLVDPDYLKDRKVFVTLTCAFRYGREDLDVLGLSFRKDLFIATYQAFPPVPNPPRPPTRLQDRLLRKLGQHAHPFFFTVRMPLPSEGQGAGAGTVSGVGIPQNLPCSVTLQPGPEDTGKACGVDFEIEAFCAKSLEEKSHKRNSVRLVIRKVQFAPEKPGPQPSAETTRHFLMSDRSLHLEASLDKELYYHGEPLNVNVHVTNNSTKTVKKIKVSVRQYADICLFSTAQYKCPVAQLEQDDQVSPSSTFCKVYTITPLLSDNREKRGLALDGKLKHEDTNLASSTIVKEGANKEVLGILVSYRVKVKLVVSRGGDVSVELPFVLMHPKPHDHIPLPRPQSAAPETDVPVDTNLIEFDTNYATDDDIVFEDFARLRLKGMKDDDYDDQLC [R169E] |

Variants of: B2
Settings: with SHC1, P29353-7

| effect of a mutation on the interaction | Variant |
| --- | --- |
| increasing interaction strength | E542K |
| increasing interaction strength | E872K |

— IntAct's records for PubMed 24658140
